Consider 2 molecules from patent publication US20090035300A1 (published 2009).

Where a chain is given by its changes, count along the chain named. Names and notes keep the numbering of the source.

The target of this experiment is FLAG-CtBP1 (full-length CtBP1 in pFLAG-CMV-2), expressed in 293 HEK cells (UniProt Q13363 1-440). Nature of the experiment: co-immunoprecipitation from transfected 293 HEK cells. On the procedure:
293 HEK cells (8×10⁵) were plated in 6-well plates and transfected with 10 μl Lipofectamine 2000 (Invitrogen Life Technologies) and 1 μg of DNA. Cells were harvested one day after transfection. THP-1 cells (4×10⁶) were brought to a final volume of 0.8 ml and electroporated with 20 μg of DNA in total. Electroporation took place in a 0.2-cm cuvette (Bio-Rad) at 300 V and 960 μF. Day 6 immature human Mo-DCs were transduced with Ad5fib35hDC-SCRIPT-green fluorescence protein (GFP) at a multiplicity of infection of 1000 as described previously (Crucell, Leiden, the Netherlands) (Havenga, M J E et al. (2002) J. Virol. 76, 4612-4620.).
Whole cell lysates were prepared in 1% SDS standard lysis buffer. Equal amounts of protein were separated by SDS-PAGE electrophoresis and proteins were transferred to Protran Nitrocellulose Transfer Membrane (Schleicher and Schuell BioScience). The following primary antibodies were used; Mouse anti-GFP (0.04 μg/ml; Roche), mouse anti-myc (0.2 μg/ml; Invitrogen Life Technologies), M2 mouse anti-FLAG 1 μg/ml (Sigma-Aldrich), mouse anti-Epstein-Barr Virus (anti-EBV) mAb, BZLF1 Protein, ZEBRA, clone BZ.1 (DakoCytomation) in combination with a second HRP conjugated Goat anti-Mouse IgG (H+L) antibody (0.4 μg/ml; Pierce). Inmmunoprecipitation was performed in a standard RIPA/1% Triton X-100 buffer for 3 h at 4° C., using protein G beads. […]

B1: YFP fusion of the acidic region of DC-SCRIPT with both motifs mutated (L593A and L648A) (pEYFP-C1), expressed in 293 HEK cells (other)
chain: EQEEPFDASQKRRAKVPVFQSDGESAQGSHCHEEEEEDNCYEVEPYSPGLAPQSQQLCTPEDASTKSEHAPEVLEEACKEEKEDASKGEWEKRSKGDLGAEGGQE
notes: also called Ac/double mut; not shown: yellow fluorescence protein (YFP) encoded by pEYFP-C1
In the case of B1, the binding result was “no binding”.

B2: YFP fusion of the acidic region of DC-SCRIPT with the first motif mutated (L593A) (pEYFP-C1), expressed in 293 HEK cells (other)
chain: B1 chain with A63L
notes: also called Ac/mut1; not shown: yellow fluorescence protein (YFP) encoded by pEYFP-C1
Turning to B2, the binding result is on record as “no binding”.
